Measurements as given in publication PMC4691284.

Biological target: Fer F-BAR domain (human) (UniProt P16591)
Assay: AUC

Fer F-BAR domain, sequence (P16591 1-264): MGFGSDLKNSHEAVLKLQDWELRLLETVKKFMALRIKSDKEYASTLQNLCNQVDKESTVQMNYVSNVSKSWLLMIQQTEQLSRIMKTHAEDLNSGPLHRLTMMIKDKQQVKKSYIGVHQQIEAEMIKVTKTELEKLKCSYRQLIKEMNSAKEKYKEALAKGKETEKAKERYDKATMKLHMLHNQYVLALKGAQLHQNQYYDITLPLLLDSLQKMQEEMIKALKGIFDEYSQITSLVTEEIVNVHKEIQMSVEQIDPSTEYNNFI

In the case of “Fer F-BAR domain (from UniProt P16591 1-259) (domain or fragment)”, the stoichiometry N is reported as 2 dimers.
